Common to all, as to assay: fluorescence polarisation
Background: In fluorescence polarisation assays a small probe gives low polarisation when free and higher when bound to something large.

In test [1] the target is pSer(2,5) RNAPII CTD di-heptad repeat peptide.
Test [2] has as its target pSer2 RNAPII CTD di-heptad repeat peptide.
In test [3] the target is pSer5 RNAPII CTD di-heptad repeat peptide.
Test [4] addresses unphosphorylated form of the RNAPII-CTD (peptide).
Test [5] deals with pTyr1 RNAPII CTD di-heptad repeat peptide.

B1: Spt6(1247–1451) (domain or fragment)
chain: AKRTHRVINHPYYFPFNGRQAEDYLRSKERGEFVIRQSSRGDDHLVITWKLDKDLFQHIDIQELEKENPLALGKVLIVDNQKYNDLDQIIVEYLQNKVRLLNEMTSSEKFKSGTKKDVVKFIEDYSRVNPNKSVYYFSLNHDNPGWFYLMFKINANSKLYTWNVKLTNTGYFLVNYNYPSVIQLCNGFKTLLKSNSSKNRMNNYR
What is called Kd is the equilibrium constant for the complex coming apart. As to B1, the Kd in test [1] was 23 µM; in test [2], 197 µM; in test [3], 245 µM; in test [4], more than 1000 µM.

B2: R1282A/S1284A Spt6(1247–1451) (domain or fragment)
chain: AKRTHRVINHPYYFPFNGRQAEDYLRSKERGEFVIAQASRGDDHLVITWKLDKDLFQHIDIQELEKENPLALGKVLIVDNQKYNDLDQIIVEYLQNKVRLLNEMTSSEKFKSGTKKDVVKFIEDYSRVNPNKSVYYFSLNHDNPGWFYLMFKINANSKLYTWNVKLTNTGYFLVNYNYPSVIQLCNGFKTLLKSNSSKNRMNNYR
As for B2, the fold decrease of binding against WT Spt6(1247–1451) was 1.2 fold in test [2], 1.4 fold in test [3] and 2.4 fold in test [5].

(Values after paper PMC3086336.)
